Assay results published in patent US20030194400.

Tests used:
[1] = biological target: T1, soluble Tissue Factor extracellular domain TF1-218
T1 chain: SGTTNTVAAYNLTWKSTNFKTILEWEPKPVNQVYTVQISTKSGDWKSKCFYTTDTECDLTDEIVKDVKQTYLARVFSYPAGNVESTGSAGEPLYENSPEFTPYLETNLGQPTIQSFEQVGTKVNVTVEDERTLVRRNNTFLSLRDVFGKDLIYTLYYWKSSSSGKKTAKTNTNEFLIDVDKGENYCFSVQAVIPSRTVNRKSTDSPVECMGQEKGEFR

[2] = biological target: fibronectin-Tissue Factor (Fn-TF) fusion protein

B1: Factor VIIa (protein)
chain: ANAFLEELRPGSLERECKEEQCSFEEAREIFKDAERTKLFWISYSDGDQCASSPCQNGGSCKDQLQSYICFCLPAFEGRNCETHKDDQLICVNENGGCEQYCSDHTGTKRSCRCHEGYSLLADGVSCTPTVEYPCGKIPILEKRNASKPQGRIVGGKVCPKGECPWQVLLLVNGAQLCGGTLINTIWVVSAAHCFDKIKNWRNLIAVLGEHDLSEHDGDEQSRRVAQVIIPSTYVPGTTNHDIALLRLHQPVVLTDHVVPLCLPERTFSERTLAFVRFSLVSGWGQLLDRGATALELMVLNVPRLMTQDCLQQSRKVGDSPNITEYMFCAGYSDGSKDSCKGDSGGPHATHYRGTWYLTGIVSWGQGCATVGHFGVYTRVSQYIEWLQKLMRSEPRPGVLLRAPFP
For B1, the “Factor VIIa amidolytic activity (chromozym t-PA hydrolysis)” value [1] was “Very little difference in amidolytic activity is discernable for Tissue Factor and Fn-TF except at high concentrations” and the “Factor VIIa amidolytic activity (chromozym t-PA hydrolysis)” value [2] was “Very little difference in amidolytic activity is discernable for Tissue Factor and Fn-TF except at high concentrations”.
